Test results reported in article PMC6412114.

How the values were obtained:
IDH1 [1] = target: T1, IDH1 (UniProt O75874 1-414); assay: EMSA
IDH1 [2] = target: T1, IDH1; assay: EMSA; remark: listed apart in the source

T1 sequence (O75874 whole entry): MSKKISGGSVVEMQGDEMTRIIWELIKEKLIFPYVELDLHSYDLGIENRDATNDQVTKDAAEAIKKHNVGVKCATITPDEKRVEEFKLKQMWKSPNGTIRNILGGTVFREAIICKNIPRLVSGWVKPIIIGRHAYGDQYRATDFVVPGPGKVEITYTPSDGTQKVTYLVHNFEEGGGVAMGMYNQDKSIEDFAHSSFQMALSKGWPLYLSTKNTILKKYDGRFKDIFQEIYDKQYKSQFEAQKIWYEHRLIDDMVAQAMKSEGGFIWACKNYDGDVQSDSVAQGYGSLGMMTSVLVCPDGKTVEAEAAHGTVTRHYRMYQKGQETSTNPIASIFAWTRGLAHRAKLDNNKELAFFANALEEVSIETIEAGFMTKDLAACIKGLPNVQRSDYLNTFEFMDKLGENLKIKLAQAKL

Binder | binding result (IDH1 [1]) | Kd (IDH1 [2]) [nM]
AU-rich dsDNA (dsDNA) DNA 1: GGATCCATTTATTTATTTATTTAAGCTTGG DNA 2: CCTAGGTTAAATAAATAAATAAATCGATCC | no binding | 
AU-rich DNA/RNA hybrid (DNA:RNA) RNA: GGAUCCAUUUAUUUAUUUAUUUAAGCUUGG DNA: CCTAGGTTAAATAAATAAATAAATCGATCC | no binding | 
AU-rich dsRNA (dsRNA) RNA 1: GGAUCCAUUUAUUUAUUUAUUUAAGCUUGG RNA 2: CCUAGGUUAAAUAAAUAAAUAAAUCGAUCC | no binding | 
GGATCCATTTATTTATTTATTTAAGCTTGG (ssDNA) [AU-rich ssDNA] | no binding | 
GGAUCCAUUUAUUUAUUUAUUUAAGCUUGG (ssRNA) [AU-rich ssRNA] |  | 680 ± 70
